Test results taken from article PMC9023267.

T1: Mtr4ΔF (fist-less) (Saccharomyces cerevisiae, UniProt P47047 1-666+=GGG+814-1073, internal_change)
T1 sequence: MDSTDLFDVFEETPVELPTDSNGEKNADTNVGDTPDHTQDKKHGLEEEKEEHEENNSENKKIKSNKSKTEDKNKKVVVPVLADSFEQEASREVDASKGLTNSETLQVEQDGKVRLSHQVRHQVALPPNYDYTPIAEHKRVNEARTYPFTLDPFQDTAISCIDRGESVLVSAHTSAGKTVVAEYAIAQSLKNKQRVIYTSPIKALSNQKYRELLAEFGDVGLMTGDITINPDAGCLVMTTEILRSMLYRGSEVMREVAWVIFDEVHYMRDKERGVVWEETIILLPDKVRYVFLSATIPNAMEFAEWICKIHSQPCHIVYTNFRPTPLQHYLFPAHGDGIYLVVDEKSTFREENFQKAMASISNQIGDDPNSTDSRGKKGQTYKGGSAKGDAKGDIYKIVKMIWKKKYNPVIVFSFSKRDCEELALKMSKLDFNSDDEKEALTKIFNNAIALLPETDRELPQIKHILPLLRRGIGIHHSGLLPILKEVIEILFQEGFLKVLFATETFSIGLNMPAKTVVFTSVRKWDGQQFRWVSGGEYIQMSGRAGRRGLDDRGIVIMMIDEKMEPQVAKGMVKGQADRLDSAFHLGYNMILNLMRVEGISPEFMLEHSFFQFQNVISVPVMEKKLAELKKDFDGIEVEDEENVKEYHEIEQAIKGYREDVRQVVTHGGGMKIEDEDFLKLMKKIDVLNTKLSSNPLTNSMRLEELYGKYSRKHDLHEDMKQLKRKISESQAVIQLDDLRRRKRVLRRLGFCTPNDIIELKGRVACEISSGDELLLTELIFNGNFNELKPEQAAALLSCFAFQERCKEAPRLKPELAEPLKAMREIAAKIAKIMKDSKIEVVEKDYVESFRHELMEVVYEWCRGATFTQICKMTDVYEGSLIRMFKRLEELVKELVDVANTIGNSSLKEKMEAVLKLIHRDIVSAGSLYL

T2: Mtr4WT (Saccharomyces cerevisiae, UniProt P47047 1-1073)
T2 sequence: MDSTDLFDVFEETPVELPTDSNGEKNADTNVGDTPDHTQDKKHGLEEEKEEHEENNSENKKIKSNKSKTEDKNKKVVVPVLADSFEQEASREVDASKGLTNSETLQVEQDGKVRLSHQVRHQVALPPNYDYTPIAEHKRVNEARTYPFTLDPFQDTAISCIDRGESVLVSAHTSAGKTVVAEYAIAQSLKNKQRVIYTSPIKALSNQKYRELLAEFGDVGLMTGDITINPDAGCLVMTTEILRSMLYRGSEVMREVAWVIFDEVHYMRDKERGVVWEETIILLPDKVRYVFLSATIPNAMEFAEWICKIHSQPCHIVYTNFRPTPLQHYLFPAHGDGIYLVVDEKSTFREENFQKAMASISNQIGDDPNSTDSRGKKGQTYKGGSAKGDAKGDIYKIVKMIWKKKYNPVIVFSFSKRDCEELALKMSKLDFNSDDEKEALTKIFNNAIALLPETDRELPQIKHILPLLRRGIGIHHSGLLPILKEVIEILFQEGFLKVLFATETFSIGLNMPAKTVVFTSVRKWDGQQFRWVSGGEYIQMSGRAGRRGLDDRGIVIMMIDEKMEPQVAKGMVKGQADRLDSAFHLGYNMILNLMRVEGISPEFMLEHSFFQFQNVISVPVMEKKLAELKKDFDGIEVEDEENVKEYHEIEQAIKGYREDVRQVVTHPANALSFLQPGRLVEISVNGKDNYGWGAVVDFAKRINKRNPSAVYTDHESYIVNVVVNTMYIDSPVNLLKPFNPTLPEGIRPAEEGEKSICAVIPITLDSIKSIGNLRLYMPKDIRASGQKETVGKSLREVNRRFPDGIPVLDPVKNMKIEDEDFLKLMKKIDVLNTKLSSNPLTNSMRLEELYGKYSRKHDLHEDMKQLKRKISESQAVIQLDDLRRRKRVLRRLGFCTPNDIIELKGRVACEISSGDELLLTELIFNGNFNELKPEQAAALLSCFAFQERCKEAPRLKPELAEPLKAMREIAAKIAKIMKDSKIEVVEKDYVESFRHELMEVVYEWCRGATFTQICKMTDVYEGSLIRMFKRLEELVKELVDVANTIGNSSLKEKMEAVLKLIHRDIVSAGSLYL


Assays:
Mtr4ΔF (fist-less) [1] = target: T1, Mtr4ΔF (fist-less); test: HDX-MS
Mtr4WT = target: T2, Mtr4WT; test: EMSA
Mtr4ΔF (fist-less) [2] = target: T1, Mtr4ΔF (fist-less); test: EMSA

Binder	binding result (Mtr4ΔF (fist-less) [1])	Kd (Mtr4WT) [nM]	Kd (Mtr4ΔF (fist-less) [2]) [nM]
GCGUCUUUACGGUGCUUAAAACAAAACAAAACAAAACAAAAA (ssRNA) [ssRNA42]	binds	420 ± 40	
tRNAiMet (structured_RNA, none (hypomodified, in vitro transcript)) RNA: GGGGUUCACUGCCGUAUAGGCAGAGCGCCGUGGCGCAGUGGAAGCGCGCAGGGCUCAUAACCCUGAUGUCCUCGGAUCGAAACCGAGCGGCGCCAAAAAAAAACGC	binds	270 ± 20	
dsRNA32 (dsRNA) RNA 1: GCAGGAGCCUAGCUGAAAGAUGUCCUCGGAUCGACGCGUCUUUACGGUGCUUAAAAA RNA 2: AGCACCGUAAAGACGC	binds	570 ± 30	
dsRNA16 (dsRNA) RNA 1: GCGUCUUUACGGUGCUUAAAAA RNA 2: AGCACCGUAAAGACGC		1140 ± 80	1420 ± 220
